Results published in article PMC6953117.

Target: giantin-WT-GFP (UniProt Q14789)
Assay: atomic force microscopy (particle volumes); giantin-GFP isolated with GFP-Trap Magnetic Agarose from DMSO- or BFA-treated HeLa cells (lysate with NEM), treated with 2% β-mercaptoethanol, deposited on mica, tapping mode in air; volumes by the spherical cap model, Gaussian fit of the …
Conditions: remark: other sources report otherwise

percent of particles in the dimer peak (BFA-treated cells): 10%
percent of particles in the dimer peak (DMSO-treated cells): 27%
stoichiometry N: 2
Substance: giantin-WT-GFP, Q14789 1-3259
